# Publication PMC2531280
# B1: histamine dehydrogenase (HADH) (Pimelobacter simplex) (protein)
# chain: MTEQPAVAAPYDVLFEPVQIGPFTTKNRFYQVPHCNGMGYRDPSAQASMRKIKAEGGWSAVCTEQVEIHATSDIAPFIELRIWDDQDLPALKRIADAIHEGGGLAGIELAHNGMNAPNQLSRETPLGPGHLPVAPDTIAPIQARAMTKQDIDDLRRWHRNAVRRSIEAGYDIVYVYGAHGYSGVHHFLSKRYNQRTDEYGGSLENRMRLLRELLEDTLDECAGRAAVACRITVEEEIDGGITREDIEGVLRELGELPDLWDFAMGSWEGDSVTSRFAPEGRQEEFVAGLKKLTTKPVVGVGRFTSPDAMVRQIKAGILDLIGAARPSIADPFLPNKIRDGRLNLIRECIGCNICVSGDLTMSPIRCTQNPSMGEEWRRGWHPERIRAKESDARVLVVGAGPSGLEAARALGVRGYDVVLAEAGRDLGGRVTQESALPGLSAWGRVKEYREAVLAELPNVEIYRESPMTGDDIVEFGFEHVITATGATWRTDGVARFHTTALPIAEGMQVLGPDDLFAGRLPDGKKVVVYDDDHYYLGGVVAELLAQKGYEVSIVTPGAQVSSWTNNTFEVNRIQRRLIENGVARVTDHAVVAVGAGGVTVRDTYASIERELECDTVVMVTARLPREELYLDLVARRDAGEIASVRGIGDAWAPGTIAAAVWSGRRAAEEFDAVLPSNDEVPFRREVTQLA
# Substrate: NCCc1c[nH]cn1
# Test: purified protein
# Assay type: biochemical, Pimelobacter simplex
protein,measurement,value
B1,Km,24 µM
same,kcat,9.8 s⁻¹
